The numbers were not newly measured in article PMC3462298, which cites them from elsewhere.

Series [1] deals with TAMRA-TRTK-12 (CapZ peptide) (Homo sapiens). Kind of series: fluorescence polarization.
A further series addresses TRTK-12 (UniProt P52907). Description: fluorescence competition.

With S100B (from UniProt P04631), the results for the Kd (in series [1]; with TRTK-12) were 1200 nM and 2900 nM, respectively.

In general, Kd refers to the free concentration of one partner at which half of the binding sites on the other are occupied at equilibrium, for simple one-to-one binding.
